Assays:
CD33 [1] = target: T1, CD33 (UniProt P20138 18-364, limits assumed); assay: flow cytometry, MOLM-13 cells, anti-His-FITC detection
T1 construct: whole, on cells; also called Siglec-3; CD33 on MOLM-13 cells
Protocol: (§1) MOLM-13 cells were incubated with different CD33 BRIDGE variants at saturating concentrations. […] The MFI intensity correlates with the number of secondary antibodies bound to the CD33 BRIDGE variants that are only detected if they are bound to the MOLM-13 cells. MFI: median fluorescence intensity. BLItz: Bio-Layer interferometry (BLI) technology using HIS-tag identification tips. […] The higher the MFIR, the stronger the binding.

nfP2X7 CAR 1 [2] = target: T2, nfP2X7 CAR 1; assay: flow cytometry, CAR T cells, anti-His-FITC, EGFR+ over EGFR- cells
T2 construct: Expressed on T cells with truncated EGFR as marker gene; also called anti-nfP2X7 receptor CAR 1; nfP2X7 targeted CAR on EGFR+ T cells
Protocol: (§2) nfP2X₇ CAR T cells were incubated with different BRiDGE variants at saturating concentrations. […] The MFI intensity correlates with the number of secondary bound antibodies bound to the BRiDGEs that are only detected if they are bound to the CAR T cells. EGFR was used as a marker gene to detect the CAR expression. Thus, the EGFR+ T cell population was defined as the CAR expressing cells and the EGFR− T cell population was defined as the CAR negative subset. MFI: median fluorescence intensity. EGFR: epidermal growth factor receptor. BLItz: Bio-Layer interferometry (BLI) technology using HIS-tag identification tips. HIS-tag MFI Ratio: relative index that is calculated by the testing condition MFI divided by the control MFI, which corresponds to the MFI measured on EGFR+ T cells (defined as CAR positive cells) divided by the MFI measured on the EGFR− T cells (defined as CAR negative cells). […] The higher the MFIR, the stronger the binding.

CD33 [3] = target: T1, CD33; assay: flow cytometry, MOLM-13 cells, anti-His-FITC detection, ratio to no bridge
Protocol: as §1

nfP2X7 CAR 1 [4] = target: T2, nfP2X7 CAR 1; assay: flow cytometry, CAR T cells, anti-His-FITC, EGFR+ MFI over background 0.4
Protocol: as §2

nfP2X7 CAR 1 [5] = target: T2, nfP2X7 CAR 1; assay: flow cytometry, nfP2X7 CAR T cells (EGFR+), anti-His-FITC detection
Protocol: as §2

T1 sequence (P20138 18-364 limits assumed): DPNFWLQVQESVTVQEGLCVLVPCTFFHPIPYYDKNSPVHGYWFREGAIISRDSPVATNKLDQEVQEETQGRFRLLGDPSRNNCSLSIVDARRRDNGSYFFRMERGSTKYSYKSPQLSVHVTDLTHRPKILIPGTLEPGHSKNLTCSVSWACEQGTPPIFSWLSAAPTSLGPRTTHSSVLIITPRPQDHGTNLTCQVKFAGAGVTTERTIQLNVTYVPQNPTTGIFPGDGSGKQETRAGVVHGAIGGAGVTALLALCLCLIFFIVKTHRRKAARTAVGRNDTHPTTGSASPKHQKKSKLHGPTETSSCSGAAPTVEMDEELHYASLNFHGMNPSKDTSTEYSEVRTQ

Binder	MFI HisTag FITC (CD33 [1])	HisTag MFI Ratio of EGFR+/EGFR- (nfP2X7 CAR 1 [2])	MFIR HisTag FITC (CD33 [3])	HisTag MFI Ratio (background 0.4) (nfP2X7 CAR 1 [4])	MFI HisTag FITC in EGFR+ Population (nfP2X7 CAR 1 [5])
CD33 BRIDGE variant B4 (Fab, Lintuzumab-based Fab bridging molecule) light: GHNYTTRNILPGLNITSTFHKTSGSGKEPKSSDKTHTDIQMTQSPSSLSASVGDRVTITCRASESVDNYGISFMNWFQQKPGKAPKLLIYAASNQGSGVPSRFSGSGSGTDFTLTISSLQPDDFATYYCQQSKEVPWTFGQGTKVEIKRTVAAPSVFIFPPSDEQLKSGTASVVCLLNNFYPREAKVQWKVDNALQSGNSQESVTEQDSKDSTYSLSSTLTLSKADYEKHKVYACEVTHQGLSSPVTKSFNRGECHHHHHH heavy: QVQLVQSGAEVKKPGSSVKVSCKASGYTFTDYNMHWVRQAPGQGLEWIGYIYPYNGGTGYNQKFKSKATITADESTNTAYMELSSLRSEDTAVYYCARGRPAMDYWGQGTLVTVSSASTKGPSVFPLAPSSKSTSGGTAALGCLVKDYFPEPVTVSWNSGALTSGVHTFPAVLQSSGLYSLSSVVTVPSSSLGTQTYICNVNHKPSNTKVDKKVEPKSCHHHHHH	5.53	3.1	8.25	4.2	1.68
CD33 BRIDGE variant B5 (Fab, Lintuzumab-based Fab bridging molecule) light: GHNYTTRNILPGLNITSTFHKTSGSGKGSEPKSSDKTHTDIQMTQSPSSLSASVGDRVTITCRASESVDNYGISFMNWFQQKPGKAPKLLIYAASNQGSGVPSRFSGSGSGTDFTLTISSLQPDDFATYYCQQSKEVPWTFGQGTKVEIKRTVAAPSVFIFPPSDEQLKSGTASVVCLLNNFYPREAKVQWKVDNALQSGNSQESVTEQDSKDSTYSLSSTLTLSKADYEKHKVYACEVTHQGLSSPVTKSFNRGECHHHHHH heavy: QVQLVQSGAEVKKPGSSVKVSCKASGYTFTDYNMHWVRQAPGQGLEWIGYIYPYNGGTGYNQKFKSKATITADESTNTAYMELSSLRSEDTAVYYCARGRPAMDYWGQGTLVTVSSASTKGPSVFPLAPSSKSTSGGTAALGCLVKDYFPEPVTVSWNSGALTSGVHTFPAVLQSSGLYSLSSVVTVPSSSLGTQTYICNVNHKPSNTKVDKKVEPKSCHHHHHH	5.86	2.8	8.75	3.5	1.4
CD33 BRIDGE variant B6 (Fab, Lintuzumab-based Fab bridging molecule) light: GHNYTTRNILPGLNITSTFHKTSGSGKGGGSEPKSSDKTHTDIQMTQSPSSLSASVGDRVTITCRASESVDNYGISFMNWFQQKPGKAPKLLIYAASNQGSGVPSRFSGSGSGTDFTLTISSLQPDDFATYYCQQSKEVPWTFGQGTKVEIKRTVAAPSVFIFPPSDEQLKSGTASVVCLLNNFYPREAKVQWKVDNALQSGNSQESVTEQDSKDSTYSLSSTLTLSKADYEKHKVYACEVTHQGLSSPVTKSFNRGECHHHHHH heavy: QVQLVQSGAEVKKPGSSVKVSCKASGYTFTDYNMHWVRQAPGQGLEWIGYIYPYNGGTGYNQKFKSKATITADESTNTAYMELSSLRSEDTAVYYCARGRPAMDYWGQGTLVTVSSASTKGPSVFPLAPSSKSTSGGTAALGCLVKDYFPEPVTVSWNSGALTSGVHTFPAVLQSSGLYSLSSVVTVPSSSLGTQTYICNVNHKPSNTKVDKKVEPKSCHHHHHH	6.25	3.4	9.33	4.9	1.96
CD33 BRIDGE variant B1 (Fab, V domains shown, Lintuzumab-based Fab bridging molecule) VH: QVQLVQSGAEVKKPGSSVKVSCKASGYTFTDYNMHWVRQAPGQGLEWIGYIYPYNGGTGYNQKFKSKATITADESTNTAYMELSSLRSEDTAVYYCARGRPAMDYWGQGTLVTVSS VL: DIQMTQSPSSLSASVGDRVTITCRASESVDNYGISFMNWFQQKPGKAPKLLIYAASNQGSGVPSRFSGSGSGTDFTLTISSLQPDDFATYYCQQSKEVPWTFGQGTKVEIKR	6.11	2.5	9.12	2.7	1.08
CD33 BRIDGE variant B3 (Fab, V domains shown, Lintuzumab-based Fab bridging molecule) VH: QVQLVQSGAEVKKPGSSVKVSCKASGYTFTDYNMHWVRQAPGQGLEWIGYIYPYNGGTGYNQKFKSKATITADESTNTAYMELSSLRSEDTAVYYCARGRPAMDYWGQGTLVTVSS VL: DIQMTQSPSSLSASVGDRVTITCRASESVDNYGISFMNWFQQKPGKAPKLLIYAASNQGSGVPSRFSGSGSGTDFTLTISSLQPDDFATYYCQQSKEVPWTFGQGTKVEIKR	6.76	2.4	10.1	2.6	1.04
CD33 BRIDGE variant B2 (Fab, V domains shown, Lintuzumab-based Fab bridging molecule) VH: QVQLVQSGAEVKKPGSSVKVSCKASGYTFTDYNMHWVRQAPGQGLEWIGYIYPYNGGTGYNQKFKSKATITADESTNTAYMELSSLRSEDTAVYYCARGRPAMDYWGQGTLVTVSS VL: DIQMTQSPSSLSASVGDRVTITCRASESVDNYGISFMNWFQQKPGKAPKLLIYAASNQGSGVPSRFSGSGSGTDFTLTISSLQPDDFATYYCQQSKEVPWTFGQGTKVEIKR	5.59	2.5	8.34	2.8	1.11
CD33 BRIDGE variant B7 (Fab, V domains shown, Lintuzumab-based Fab bridging molecule) VH: QVQLVQSGAEVKKPGSSVKVSCKASGYTFTDYNMHWVRQAPGQGLEWIGYIYPYNGGTGYNQKFKSKATITADESTNTAYMELSSLRSEDTAVYYCARGRPAMDYWGQGTLVTVSS VL: DIQMTQSPSSLSASVGDRVTITCRASESVDNYGISFMNWFQQKPGKAPKLLIYAASNQGSGVPSRFSGSGSGTDFTLTISSLQPDDFATYYCQQSKEVPWTFGQGTKVEIKR	5.52	3	8.24	3.6	1.45

Results, then the binder that gave them:

MFI HisTag FITC (CD33 [1])	HisTag MFI Ratio of EGFR+/EGFR- (nfP2X7 CAR 1 [2])	MFIR HisTag FITC (CD33 [3])	HisTag MFI Ratio (background 0.4) (nfP2X7 CAR 1 [4])	MFI HisTag FITC in EGFR+ Population (nfP2X7 CAR 1 [5])	Binder
6.86	3.5	10.2	5	1.99	CD33 BRIDGE variant B10 (Fab, Lintuzumab-based Fab bridging molecule) light: GHNYTTRNILPGLNITSTFHKTSGSGKEPKSSDKTHTGSDIQMTQSPSSLSASVGDRVTITCRASESVDNYGISFMNWFQQKPGKAPKLLIYAASNQGSGVPSRFSGSGSGTDFTLTISSLQPDDFATYYCQQSKEVPWTFGQGTKVEIKRTVAAPSVFIFPPSDEQLKSGTASVVCLLNNFYPREAKVQWKVDNALQSGNSQESVTEQDSKDSTYSLSSTLTLSKADYEKHKVYACEVTHQGLSSPVTKSFNRGECHHHHHH heavy: QVQLVQSGAEVKKPGSSVKVSCKASGYTFTDYNMHWVRQAPGQGLEWIGYIYPYNGGTGYNQKFKSKATITADESTNTAYMELSSLRSEDTAVYYCARGRPAMDYWGQGTLVTVSSASTKGPSVFPLAPSSKSTSGGTAALGCLVKDYFPEPVTVSWNSGALTSGVHTFPAVLQSSGLYSLSSVVTVPSSSLGTQTYICNVNHKPSNTKVDKKVEPKSCHHHHHH
7.39	2.7	11	3	1.2	CD33 BRIDGE variant B11 (Fab, Lintuzumab-based Fab bridging molecule) light: GHNYTTRNILPGLNITSTFHKTSGSGKGSEPKSSDKTHTGSDIQMTQSPSSLSASVGDRVTITCRASESVDNYGISFMNWFQQKPGKAPKLLIYAASNQGSGVPSRFSGSGSGTDFTLTISSLQPDDFATYYCQQSKEVPWTFGQGTKVEIKRTVAAPSVFIFPPSDEQLKSGTASVVCLLNNFYPREAKVQWKVDNALQSGNSQESVTEQDSKDSTYSLSSTLTLSKADYEKHKVYACEVTHQGLSSPVTKSFNRGECHHHHHH heavy: QVQLVQSGAEVKKPGSSVKVSCKASGYTFTDYNMHWVRQAPGQGLEWIGYIYPYNGGTGYNQKFKSKATITADESTNTAYMELSSLRSEDTAVYYCARGRPAMDYWGQGTLVTVSSASTKGPSVFPLAPSSKSTSGGTAALGCLVKDYFPEPVTVSWNSGALTSGVHTFPAVLQSSGLYSLSSVVTVPSSSLGTQTYICNVNHKPSNTKVDKKVEPKSCHHHHHH
6.53	2.9	9.75	3.4	1.34	CD33 BRIDGE variant B8 (Fab, V domains shown, Lintuzumab-based Fab bridging molecule) VH: QVQLVQSGAEVKKPGSSVKVSCKASGYTFTDYNMHWVRQAPGQGLEWIGYIYPYNGGTGYNQKFKSKATITADESTNTAYMELSSLRSEDTAVYYCARGRPAMDYWGQGTLVTVSS VL: DIQMTQSPSSLSASVGDRVTITCRASESVDNYGISFMNWFQQKPGKAPKLLIYAASNQGSGVPSRFSGSGSGTDFTLTISSLQPDDFATYYCQQSKEVPWTFGQGTKVEIKR
6.33	2.8	9.45	2.9	1.16	CD33 BRIDGE variant B9 (Fab, V domains shown, Lintuzumab-based Fab bridging molecule) VH: QVQLVQSGAEVKKPGSSVKVSCKASGYTFTDYNMHWVRQAPGQGLEWIGYIYPYNGGTGYNQKFKSKATITADESTNTAYMELSSLRSEDTAVYYCARGRPAMDYWGQGTLVTVSS VL: DIQMTQSPSSLSASVGDRVTITCRASESVDNYGISFMNWFQQKPGKAPKLLIYAASNQGSGVPSRFSGSGSGTDFTLTISSLQPDDFATYYCQQSKEVPWTFGQGTKVEIKR

Reference: patent US20250281611A1 (BIOSCEPTRE AUST, published 2025)
